These results are taken from paper PMC13694701 (2026).

For orientation: Kd means the concentration at which binding is half-saturated. Low readings indicate tighter binding, high ones weaker binding.

In one assay the target is TRIM62 PRY-SPRY (Homo sapiens, UniProt Q9BVG3). In words: MST.
In another assay the target is TRIM62 (Homo sapiens, UniProt Q9BVG3). In words: MST.
Sequence of TRIM62 (Q9BVG3 whole entry): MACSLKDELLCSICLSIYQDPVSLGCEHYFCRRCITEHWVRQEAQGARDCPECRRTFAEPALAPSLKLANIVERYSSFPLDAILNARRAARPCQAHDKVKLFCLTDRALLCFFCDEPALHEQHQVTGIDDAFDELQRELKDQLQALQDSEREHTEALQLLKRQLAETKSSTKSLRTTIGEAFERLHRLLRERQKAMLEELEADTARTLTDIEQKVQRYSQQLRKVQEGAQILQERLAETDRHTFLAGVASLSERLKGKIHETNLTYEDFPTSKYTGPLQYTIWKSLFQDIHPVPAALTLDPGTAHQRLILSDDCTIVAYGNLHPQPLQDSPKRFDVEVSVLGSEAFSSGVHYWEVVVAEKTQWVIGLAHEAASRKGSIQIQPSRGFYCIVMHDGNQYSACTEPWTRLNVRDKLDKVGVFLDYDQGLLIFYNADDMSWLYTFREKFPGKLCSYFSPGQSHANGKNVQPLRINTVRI

Sequence of TRIM62 PRY-SPRY (Q9BVG3 277-475): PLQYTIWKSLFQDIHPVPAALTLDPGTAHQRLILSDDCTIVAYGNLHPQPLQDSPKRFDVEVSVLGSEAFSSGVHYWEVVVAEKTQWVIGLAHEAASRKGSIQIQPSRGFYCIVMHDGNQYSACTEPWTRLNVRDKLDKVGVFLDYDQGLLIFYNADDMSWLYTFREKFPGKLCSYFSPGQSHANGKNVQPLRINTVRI

B1: FAM21 1-356 (protein)
chain: MMNRTTPDQELVPASEPVWERPWSVEEIRRSSQSWSLAADAGLLQFLQEFSQQTISRTHEIKKQVDGLIRETKATDCRLHNVFNDFLMLSNTQFIENRVYDEEVEEPVLKAEAEKTEQEKTREQKEVDLIPKVQEAVNYGLQVLDSAFEQLDIKAGNSDSEEDDANGRVELILEPKDLYIDRPLPYLIGSKLFMEQEDVGLGELSSEEGSVGSDRGSIVDTEEEKEEEESDEDFAHHSDNEQNQHTTQMSDEEEDDDGCDLFADSEKEEEDIEDIEENTRPKRSRPTSFADELAARIKGDAMGRVDEEPTTLPSGEAKPRKTLKEKKERRTPSDDEEDNLFAPPKLTDEDFSPFGS
Turning to B1, the Kd with TRIM62 PRY-SPRY turned out to be 44.9 µM; in the assay with TRIM62 it was 0.4 µM.
